In patent US6380162B1, “Ice inhibiting peptides” (Applied Research Systems ARS Holding N.V., priority 1999, dated 2002):
Values belong to the molecule of their own block, whether it stands above or below them.

Columns and labels:
ICE = molecular target: T1, ICE (Homo sapiens, UniProt P29466); assay: Inhibition of ICE cleavage of pIL-1β, SDS-PAGE and Western blotting; assay type: biochemical; parameters: expressed in transfected cells; host or cells: COS-7 cells transfected with pSG5-ICE cDNA, or alternatively lysate of freshly isolated human monocytes; details: pIL-1β 5 ng incubated with ICE; peptides 100, 300 or 1,000 μM; Western blotting
T1 sequence (P29466 120-404): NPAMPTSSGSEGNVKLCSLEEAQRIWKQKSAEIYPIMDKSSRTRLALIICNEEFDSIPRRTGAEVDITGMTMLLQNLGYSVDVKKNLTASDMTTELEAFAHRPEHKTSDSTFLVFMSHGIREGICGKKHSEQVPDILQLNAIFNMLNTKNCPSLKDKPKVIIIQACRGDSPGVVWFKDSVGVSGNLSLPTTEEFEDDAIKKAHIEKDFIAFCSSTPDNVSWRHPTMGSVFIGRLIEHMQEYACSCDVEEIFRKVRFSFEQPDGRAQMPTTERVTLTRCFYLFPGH
Procedure: cDNA coding for human ICE has been amplified by PCR. The sequence was confirmed and the cDNA was subcloned into pSG5 expression vector. COS cells were transfected with empty vector (mock) or vector containing ICE cDNA and after 48 hours, cells were analysed for the expression of ICE specific mRNA.
A monocyte lysate, prepared as previously described (11), was also able to convert pIL-1β into a mature form (FIG. 2). Therefore, recombinant ICE or freshly isolated human monocytes were used as a source of ICE enzymatic activity for further experiments.
A source of ICE activity was prepared and its ability to cleave pIL-1β was tested by incubating the reaction at 37° C. for 1 hour. The mixture was then run on SDS-PAGE and the presence of pIL1-β or the mature form was evidenced by Western Blotting.

[1] = molecular target: Human recombinant IL-1β precursor, P01584
Chain of Human recombinant IL-1β precursor, P01584 (P01584 whole entry, looked up): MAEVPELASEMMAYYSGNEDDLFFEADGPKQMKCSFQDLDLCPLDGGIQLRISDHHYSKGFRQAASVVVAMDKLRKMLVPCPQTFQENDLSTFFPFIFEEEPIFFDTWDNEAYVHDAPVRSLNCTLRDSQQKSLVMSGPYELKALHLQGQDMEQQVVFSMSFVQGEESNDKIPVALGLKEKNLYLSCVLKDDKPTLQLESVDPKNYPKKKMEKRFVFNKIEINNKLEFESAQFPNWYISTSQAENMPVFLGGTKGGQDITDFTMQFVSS

inhibition of ICE activity (FIG. 6) (ICE): inhibition of ICE activity
Molecule: peptide C: SEQ ID NO:4, designed on the basis of icIL-1raII sequence (MALADLYEEGGGGGGEGEDNADSK)

inhibition of ICE activity (FIG. 6) (ICE): inhibition of ICE activity
Molecule: peptide S: SEQ ID NO:5, identical to peptide C except for two Ala substituting the two Asp residues (MALAALYEEGGGGGGEGEDNAASK)

B1: ICE (Interleukin-1β-Converting Enzyme), human (protein)
chain: MADKVLKEKRKLFIRSMGEGTINGLLDELLQTRVLNKEEMEKVKRENATVMDKTRALIDSVIPKGAQACQICITYICEEDSYLAGTLGLSADQTSGNYLNMQDSQGVLSSFPAPQAVQDNPAMPTSSGSEGNVKLCSLEEAQRIWKQKSAEIYPIMDKSSRTRLALIICNEEFDSIPRRTGAEVDITGMTMLLQNLGYSVDVKKNLTASDMTTELEAFAHRPEHKTSDSTFLVFMSHGIREGICGKKHSEQVPDILQLNAIFNMLNTKNCPSLKDKPKVIIIQACRGDSPGVVWFKDSVGVSGNLSLPTTEEFEDDAIKKAHIEKDFIAFCSSTPDNVSWRHPTMGSVFIGRLIEHMQEYACSCDVEEIFRKVRFSFEQPDGRAQMPTTERVTLTRCFYLFPGH
conversion of pIL-1β into the mature form (Western blotting after 60 minutes at 37° C.) [1]: A monocyte lysate, prepared as previously described (11), was also able to convert pIL-1β into a mature form
